# Results reported in the supplement of paper PMC9233669.
# This sample holds only a part of the variants without activity.
# Assays:
# [1] = system: biotinyl-Ile-oxazolone; test: self-aminoacylation, catalytic enhancement (BIO) (fold over background); higher = more active; k-Seq, kA / k0A0; sequences stand for … in GGGAAUGGAUCCACAUCUACGAAUUC…UUCACUGCAGACUUGACGAAGCUG
# Outline: (§1)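 Mutagenized RNA pools with a 21-nt variable region (0.43 μM) reacted with each biotinyl-aminoacyl-oxazolone at 2–1250 μM. Reactions ran in 50 μL HEPES/NaCl/KCl/MgCl2/CaCl2 buffer with 5% acetonitrile, pH 6.9–7.0, for 90 minutes at room temperature. Streptavidin-captured RNA was quantified by triplicate qPCR and Illumina sequencing, and per-sequence fraction reacted was fit to a pseudo-first-order model with 1000 bootstraps. Catalytic enhancement is median kA divided by the uncatalyzed rate, the low-activity peak of a bimodal Gaussian fit.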
# [2] = system: biotinyl-Phe-oxazolone; test: self-aminoacylation, catalytic enhancement (BFO) (fold over background); higher = more active; k-Seq, kA / k0A0; sequences stand for … in GGGAAUGGAUCCACAUCUACGAAUUC…UUCACUGCAGACUUGACGAAGCUG
# Outline: as §1
# [3] = system: biotinyl-Trp-oxazolone; test: self-aminoacylation, catalytic enhancement (BWO) (fold over background); higher = more active; k-Seq, kA / k0A0; sequences stand for … in GGGAAUGGAUCCACAUCUACGAAUUC…UUCACUGCAGACUUGACGAAGCUG
# Outline: as §1
# [4] = system: biotinyl-Met-oxazolone; test: self-aminoacylation, catalytic enhancement (BMO) (fold over background); higher = more active; k-Seq, kA / k0A0; sequences stand for … in GGGAAUGGAUCCACAUCUACGAAUUC…UUCACUGCAGACUUGACGAAGCUG
# Outline: as §1
# [5] = system: biotinyl-Leu-oxazolone; test: self-aminoacylation, catalytic enhancement (BLO) (fold over background); higher = more active; k-Seq, kA / k0A0; sequences stand for … in GGGAAUGGAUCCACAUCUACGAAUUC…UUCACUGCAGACUUGACGAAGCUG
# Outline: as §1
# [6] = system: biotinyl-Val-oxazolone; test: self-aminoacylation, catalytic enhancement (BVO) (fold over background); higher = more active; k-Seq, kA / k0A0; sequences stand for … in GGGAAUGGAUCCACAUCUACGAAUUC…UUCACUGCAGACUUGACGAAGCUG
# Outline: as §1
sequence,measurement,setting,value
AAAUUUGCUAACAGUCGCAAG [Fam3.1 aminoacylation ribozyme variant],self-aminoacylation,[1],2.02
same,self-aminoacylation,[2],2.2
AACUUUGCUAAUACUCGCAAG [Fam3.1 aminoacylation ribozyme variant],self-aminoacylation,[1],2.19
same,self-aminoacylation,[2],2.02
AAGCAUGCUAAUAGUCGCAAG [Fam3.1 aminoacylation ribozyme variant],self-aminoacylation,[1],2.36
same,self-aminoacylation,[3],2.61
same,self-aminoacylation,[4],2.61
same,self-aminoacylation,[2],6.71
AAGUUAGCCAAUAGUCGCAAG [Fam3.1 aminoacylation ribozyme variant],self-aminoacylation,[1],2.02
same,self-aminoacylation,[5],2.35
same,self-aminoacylation,[3],2.28
same,self-aminoacylation,[4],2.22
same,self-aminoacylation,[2],2.56
AAGUUCGCUAAUAGUCGCACG [Fam3.1 aminoacylation ribozyme variant],self-aminoacylation,[1],2.34
same,self-aminoacylation,[5],2.35
same,self-aminoacylation,[2],2.18
AAGUUUGCCAAUAGUCGCAGG [Fam3.1 aminoacylation ribozyme variant],self-aminoacylation,[6],2.08
same,self-aminoacylation,[5],2.33
same,self-aminoacylation,[3],3.26
same,self-aminoacylation,[4],2.73
same,self-aminoacylation,[2],15.8
AAUACCCUCGUCAUCGAGUGA [Fam2.1 aminoacylation ribozyme variant],self-aminoacylation,[1],2.08
same,self-aminoacylation,[5],3
same,self-aminoacylation,[3],3.7
same,self-aminoacylation,[4],2.53
same,self-aminoacylation,[2],3.81
AAUUUUGCUAAAAGUCGCAAG [Fam3.1 aminoacylation ribozyme variant],self-aminoacylation,[1],2.1
same,self-aminoacylation,[5],2.38
same,self-aminoacylation,[3],3.11
same,self-aminoacylation,[2],2.77
ACGUCUGCUAAUAGUCGCAAG [Fam3.1 aminoacylation ribozyme variant],self-aminoacylation,[1],2.02
same,self-aminoacylation,[3],8.61
same,self-aminoacylation,[4],2.12
same,self-aminoacylation,[2],32.2
AGUACCCUGGUCAUCGUGUGA [Fam2.1 aminoacylation ribozyme variant],self-aminoacylation,[6],2.06
same,self-aminoacylation,[5],3.43
same,self-aminoacylation,[3],3.88
same,self-aminoacylation,[4],3.07
same,self-aminoacylation,[2],16.3
AUUACACUGGUCAUAGAGUGA [Fam2.1 aminoacylation ribozyme variant],self-aminoacylation,[6],2.13
same,self-aminoacylation,[5],3.62
same,self-aminoacylation,[3],3.92
same,self-aminoacylation,[4],3.15
same,self-aminoacylation,[2],8.72
AUUACCCUGAUCAGCGAGUGA [Fam2.1 aminoacylation ribozyme variant],self-aminoacylation,[6],2.3
same,self-aminoacylation,[5],2.74
same,self-aminoacylation,[3],4.93
same,self-aminoacylation,[4],2.71
same,self-aminoacylation,[2],3.1
AUUACCCUGGCCUUCGAGUGA [Fam2.1 aminoacylation ribozyme variant],self-aminoacylation,[6],2.53
same,self-aminoacylation,[5],4.36
same,self-aminoacylation,[3],5.17
same,self-aminoacylation,[4],3.21
same,self-aminoacylation,[2],17.9
AUUACCCUGGUCACCGAGUAA [Fam2.1 aminoacylation ribozyme variant],self-aminoacylation,[6],2.34
same,self-aminoacylation,[5],2.46
same,self-aminoacylation,[4],2.62
same,self-aminoacylation,[2],10.1
AUUACCCUGGUCAGCGAGCGA [Fam2.1 aminoacylation ribozyme variant],self-aminoacylation,[6],2.08
same,self-aminoacylation,[5],2.33
same,self-aminoacylation,[4],2.34
AUUACCCUGGUCCUCGAGGGA [Fam2.1 aminoacylation ribozyme variant],self-aminoacylation,[6],2.15
same,self-aminoacylation,[3],2.37
AUUACCUUCGUCAUCGAGUGA [Fam2.1 aminoacylation ribozyme variant],self-aminoacylation,[5],2.18
same,self-aminoacylation,[3],2.15
same,self-aminoacylation,[4],2.22
same,self-aminoacylation,[2],2.48
AUUACCUUGGUCCUCGAGUGA [Fam2.1 aminoacylation ribozyme variant],self-aminoacylation,[6],2.11
same,self-aminoacylation,[5],3.95
same,self-aminoacylation,[3],4.39
same,self-aminoacylation,[4],3.05
same,self-aminoacylation,[2],17.8
AUUACUCUGGCCAUCGAGUGA [Fam2.1 aminoacylation ribozyme variant],self-aminoacylation,[1],2.06
same,self-aminoacylation,[5],3.55
same,self-aminoacylation,[3],4.19
same,self-aminoacylation,[4],3.15
same,self-aminoacylation,[2],11.7
AUUAUCCUCGUCAUCGAGUGA [Fam2.1 aminoacylation ribozyme variant],self-aminoacylation,[5],2.75
same,self-aminoacylation,[3],3
same,self-aminoacylation,[4],2.95
same,self-aminoacylation,[2],5.23
AUUCAACUAGGACAUCGGGUG [Fam2.2 aminoacylation ribozyme variant],self-aminoacylation,[1],2.05
same,self-aminoacylation,[5],3.38
same,self-aminoacylation,[3],2.79
same,self-aminoacylation,[4],2.42
same,self-aminoacylation,[2],17
AUUCACCUAGGUCAACGAGUG [Fam2.2 aminoacylation ribozyme variant],self-aminoacylation,[1],2.07
same,self-aminoacylation,[5],3.76
same,self-aminoacylation,[4],2.6
same,self-aminoacylation,[2],5.07
AUUCACCUAGGUCAUCGCGAG [Fam2.2 aminoacylation ribozyme variant],self-aminoacylation,[6],2.31
same,self-aminoacylation,[2],4.46
AUUCACCUAGUUCAUAGGGUG [Fam2.2 aminoacylation ribozyme variant],self-aminoacylation,[5],3.8
same,self-aminoacylation,[3],3.14
same,self-aminoacylation,[4],3.63
same,self-aminoacylation,[2],15.4
AUUCACCUCGGUCAUCGGGUC [Fam2.2 aminoacylation ribozyme variant],self-aminoacylation,[6],2.01
same,self-aminoacylation,[5],2.04
same,self-aminoacylation,[2],9.78
AUUCACCUUGGUCAUCGGGGG [Fam2.2 aminoacylation ribozyme variant],self-aminoacylation,[6],2.04
same,self-aminoacylation,[5],2.84
same,self-aminoacylation,[3],2.28
same,self-aminoacylation,[4],2.04
same,self-aminoacylation,[2],13
AUUCACGUAGGUCAUCGAGUG [Fam2.2 aminoacylation ribozyme variant],self-aminoacylation,[5],2.67
same,self-aminoacylation,[3],2.73
same,self-aminoacylation,[4],2.92
same,self-aminoacylation,[2],2.42
AUUCACGUAGGUCAUCGGGAG [Fam2.2 aminoacylation ribozyme variant],self-aminoacylation,[6],2.13
same,self-aminoacylation,[4],2.07
AUUCACUUAGGUCAGCGGGUG [Fam2.2 aminoacylation ribozyme variant],self-aminoacylation,[1],2.5
same,self-aminoacylation,[5],3.88
same,self-aminoacylation,[3],2.75
same,self-aminoacylation,[4],2.99
same,self-aminoacylation,[2],15.6
AUUGCCCUGGUCAUCGUGUGA [Fam2.1 aminoacylation ribozyme variant],self-aminoacylation,[5],3.19
same,self-aminoacylation,[3],3.2
same,self-aminoacylation,[4],2.93
same,self-aminoacylation,[2],24
CAGUCUGCUAAUAGUCGCAAG [Fam3.1 aminoacylation ribozyme variant],self-aminoacylation,[1],2.14
same,self-aminoacylation,[3],9.53
same,self-aminoacylation,[4],2.86
same,self-aminoacylation,[2],28.2
CAGUUUGCUAAUAGUCGCAAA [Fam3.1 aminoacylation ribozyme variant],self-aminoacylation,[1],2.35
same,self-aminoacylation,[2],4.61
CCACACCUCAAGCAAUCGGUA [Fam1B.1 aminoacylation ribozyme variant],self-aminoacylation,[6],2.1
CCACACUUAAAGCAAUCGGGC [Fam1B.1 aminoacylation ribozyme variant],self-aminoacylation,[1],2.19
CCACACUUCAAGCAAUGGGUG [Fam1B.1 aminoacylation ribozyme variant],self-aminoacylation,[6],2.24
same,self-aminoacylation,[5],3
same,self-aminoacylation,[3],2.39
same,self-aminoacylation,[4],2.61
same,self-aminoacylation,[2],10.7
CCACACUUCAAGCAAUUGGUG [Fam1B.1 aminoacylation ribozyme variant],self-aminoacylation,[1],2.28
same,self-aminoacylation,[5],3.62
same,self-aminoacylation,[3],2.84
same,self-aminoacylation,[4],3.03
same,self-aminoacylation,[2],5.72
CCACACUUCAAGCAGUCGGCC [Fam1B.1 aminoacylation ribozyme variant],self-aminoacylation,[6],2.84
same,self-aminoacylation,[5],2.47
same,self-aminoacylation,[4],2.22
same,self-aminoacylation,[2],4.85
CCACACUUCAAGCAUUCGGUA [Fam1B.1 aminoacylation ribozyme variant],self-aminoacylation,[6],2.44
CCACACUUCAGGCGAUCGGUC [Fam1B.1 aminoacylation ribozyme variant],self-aminoacylation,[6],2.42
same,self-aminoacylation,[4],2.1
same,self-aminoacylation,[2],4.75
CCACACUUCUAGCAAUCGGCC [Fam1B.1 aminoacylation ribozyme variant],self-aminoacylation,[6],2.2
same,self-aminoacylation,[5],2.06
same,self-aminoacylation,[3],2.72
same,self-aminoacylation,[4],2.54
CCAUACUUCAAGCAAUCGGCC [Fam1B.1 aminoacylation ribozyme variant],self-aminoacylation,[5],2.33
same,self-aminoacylation,[3],3.74
same,self-aminoacylation,[4],2.36
same,self-aminoacylation,[2],2.88
CCCCACGUCAAGCAAUCGGUC [Fam1B.1 aminoacylation ribozyme variant],self-aminoacylation,[6],2.4
same,self-aminoacylation,[3],2.49
same,self-aminoacylation,[2],5.6
CCCCACUGCAAGCAAUCGGUC [Fam1B.1 aminoacylation ribozyme variant],self-aminoacylation,[6],2.35
same,self-aminoacylation,[3],3.43
same,self-aminoacylation,[2],4.31
CCCCACUUCAACCAAUCGGUC [Fam1B.1 aminoacylation ribozyme variant],self-aminoacylation,[1],2.37
same,self-aminoacylation,[5],2.99
same,self-aminoacylation,[3],53.6
same,self-aminoacylation,[2],101
GAGCUUGCUAAUAGUCGCAAG [Fam3.1 aminoacylation ribozyme variant],self-aminoacylation,[6],2.02
same,self-aminoacylation,[3],2.4
same,self-aminoacylation,[4],2.03
same,self-aminoacylation,[2],4.81
GAGUUUGCUAAAAGUCGCAAG [Fam3.1 aminoacylation ribozyme variant],self-aminoacylation,[6],2.1
same,self-aminoacylation,[3],5.66
same,self-aminoacylation,[2],8.71
GCACACAUCAAGCAAUCGGUC [Fam1B.1 aminoacylation ribozyme variant],self-aminoacylation,[1],2.01
same,self-aminoacylation,[3],2.22
same,self-aminoacylation,[2],3.12
